Sequences and labels used below:
B1: D domain of SEQ ID NO: 627 (designed binder)
chain: MGSWVEFDSRLAAIDYRLEALGGSEAELAWFEYTIANFEHTLQMYKGKGNPEVEALVYEAHAIATELQAYRHN
B2: D domain of SEQ ID NO: 631 (designed binder)
chain: MGSWYEFDERLDAIFDRLWALGGSEAELAYFEQVIATFEKTLQRYKGKGNPEVEALDTEAKAISWELDAYRHN
B3: D domain of SEQ ID NO: 654 (designed binder)
chain: MGSWYEFLARLYAIDERLWALGGSEAELATFEHWIADFEEQLQSYKGKGNPEVEALTDEAVAIGEELSAYRHN
B4: D domain of SEQ ID NO: 652 (designed binder)
chain: MGSWIEFWNRLEAIEERLYALGGSEAELAYFEDEIAEFEIYLQQYKGKGNPEVEALKHEAEAINKELMAYRHN
B5: D domain of SEQ ID NO: 642 (designed binder)
chain: MGSWWEFEDRLYAIDDRLWALGGSEAELAQFEREIAQFEIWLQEYKGKGNPEVEALDDEATAINSELFAYRHN
B6: D domain of SEQ ID NO: 629 (designed binder)
chain: MGSWIEFDERLDAIDFRLWALGGSEAELAWFEGWIAEFESDLQLYKGKGNPEVEALNEEANAIFHELSAYRHN
B7: D domain of SEQ ID NO: 641 (designed binder)
chain: MGSWYEFVYRLRAIDERLDALGGSEAELAMFEFEIAFFEDQLQRYKGKGNPEVEALVDEAQAIDFELFAYRHN
B8: D domain of SEQ ID NO: 636 (designed binder)
chain: MGSWVEFMDRLEAIEERLSALGGSEAELAFFEWEIAEFEEHLQVYKGKGNPEVEALEWEALAITEELAAYRHN
B9: D domain of SEQ ID NO: 655 (designed binder)
chain: MGSWLEFETRLHAIDERLWALGGSEAELAEFEEHIAWFEEDLQFYKGKGNPEVEALDFEADAIGWELWAYRHN
B10: D domain of SEQ ID NO: 632 (designed binder)
chain: MGSWYEFQERLDAIDSRLWALGGSEAELAWFEYTIAEFEKELQMYKGKGNPEVEALGTEAVAISEELMAYRHN
B11: D domain of SEQ ID NO: 651 (designed binder)
chain: MGSWWEFNARLDAIEDRLMALGGSEAELAYFEDIIASFENILQQYKGKGNPEVEALWYEAYAIEKELNAYRHN
B12: D domain of SEQ ID NO: 646 (designed binder)
chain: MGSWYEFMGRLEAIDERLQALGGSEAELAWFEHEIAEFEWSLQWYKGKGNPEVEALRFEAGAIPWELWAYRHN
B13: D domain of SEQ ID NO: 650 (designed binder)
chain: MGSWDEFAMRLEAIQARLFALGGSEAELAIFEDEIAFFETMLQDYKGKGNPEVEALEYEAAAIEAELGAYRHN
B14: D domain of SEQ ID NO: 637 (designed binder)
chain: MGSWIEFMDRLWAIDQRLWALGGSEAELAWFEEEIAWFEEELQVYKGKGNPEVEALEWEATAISEELWAYRHN
B15: D domain of SEQ ID NO: 648 (designed binder)
chain: MGSWEEFHMRLIAIDERLWALGGSEAELAGFEESIAYFESQLQDYKGKGNPEVEALDYEAHAIWRELYAYRHN
B16: D domain of SEQ ID NO: 626 (designed binder)
chain: MGSWFEFDARLMAINDRLWALGGSEAELAAFEYHIALFEDQLQMYKGKGNPEVEALTLEAVAINEELWAYRHN
B17: D domain of SEQ ID NO: 633 (designed binder)
chain: MGSWEEFEDRLWAIDGRLYALGGSEAELAWFEQWIATFEEDLQDYKGKGNPEVEALEYEASAIFEELEAYRHN
B18: D domain of SEQ ID NO: 628 (designed binder)
chain: MGSWTEFDERLDAIDWRLEALGGSEAELAWFEGDIALFEQYLQVYKGKGNPEVEALMEEADAIKAELDAYRHN
B19: D domain of SEQ ID NO: 653 (designed binder)
chain: MGSWNEFVIRLFAIDDRLYALGGSEAELAWFEDEIATFEYELQRYKGKGNPEVEALEYEAEAIVSELFAYRHN
B20: D domain of SEQ ID NO: 647 (designed binder)
chain: MGSWVEFSNRLDAIWERLQALGGSEAELAYFEWEIAEFEWELQSYKGKGNPEVEALNAEADAIEWELEAYRHN
B21: D domain of SEQ ID NO: 657 (designed binder)
chain: MGSWHEFWQRLEAIEGRLWALGGSEAELADFESLIADFEEQLQEYKGKGNPEVEALMAEAEAIDNELRAYRHN
B22: D domain of SEQ ID NO: 634 (designed binder)
chain: MGSWFEFGDRLEAIDERLYALGGSEAELAQFEWWIAEFEHHLQDYKGKGNPEVEALEYEADAIWGELHAYRHN
B23: D domain of SEQ ID NO: 656 (designed binder)
chain: MGSWFEFETRLEAIDLRLWALGGSEAELATFEDVIAFFEDWLQFYKGKGNPEVEALKMEAWAIGEELHAYRHN
B24: D domain of SEQ ID NO: 649 (designed binder)
chain: MGSWWEFKYRLDAICFRLAALGGSEAELASFEDEIAYFEEDLQGYKGKGNPEVEALDYEALAIWDELAAYRHN
B25: D domain of SEQ ID NO: 640 (designed binder)
chain: MGSWYEFEWRLDAIDRRLWALGGSEAELADFEEEIADFEWMLQNYKGKGNPEVEALVDEASAIQTELWAYRHN
B26: D domain of SEQ ID NO: 658 (designed binder)
chain: MGSWYEFEQRLEAIEWRLGALGGSEAELATFEEDIADFEEWLQEYKGKGNPEVEALQYEAYAIAEELHAYRHN
B27: D domain of SEQ ID NO: 643 (designed binder)
chain: MGSWDEFEFRLEAIDSRLWALGGSEAELAVFEYEIAQFEFMLQEYKGKGNPEVEALGMEAWAIENELFAYRHN
B28: D domain of SEQ ID NO: 644 (designed binder)
chain: MGSWEEFEWRLDAIDERLWALGGSEAELATFEYEIAIFENELQQYKGKGNPEVEALDSEAYAIERELGAYRHN
B29: D domain of SEQ ID NO: 630 (designed binder)
chain: MGSWWEFDSRLDAIDFRLWALGGSEAELAWFEVEIADFEDWLQLYKGKGNPEVEALWHEADAIVTELYAYRHN
B30: D domain of SEQ ID NO: 645 (designed binder)
chain: MGSWYEFFDRLDAIDERLWALGGSEAELAWFEAEIAEFEMELQGYKGKGNPEVEALDVEAHAIEMELFAYRHN
B31: D domain of SEQ ID NO: 635 (designed binder)
chain: MGSWFEFNDRLDAISERLSALGGSEAELAYFEWQIAVFEKTLQNYKGKGNPEVEALTLEANAIFEELEAYRHN
B32: D domain of SEQ ID NO: 659 (designed binder)
chain: MGSWYEFENRLFAIEERLWALGGSEAELAWFEYEIANFEWGLQSYKGKGNPEVEALDNEAEAIDIELAAYRHN
B33: D domain of SEQ ID NO: 638 (designed binder)
chain: MGSWEEFNWRLRAIDERLFALGGSEAELAWFEYDIAEFEEQLQVYKGKGNPEVEALRVEAAAIAEELYAYRHN
B34: D domain of SEQ ID NO: 639 (designed binder)
chain: MGSWWEFEIRLDAIDERLWALGGSEAELAWFEQSIAFFENDLQVYKGKGNPEVEALRWEANAIIEELFAYRHN
B35: D-domain SEQ ID NO: 79 (designed binder)
chain: MGSWVEFKARLEAISSRLTALGGSEAELAAFEKEIAAFESELQAYKGKGNPEVEELRYSAALIRVYLQAYRHN
B36: D-domain SEQ ID NO: 72 (designed binder)
chain: MGSWVEFQDRLEAITDRLYALGGSEAELAAFEKEIAAFESELQAYKGKGNPEVEELRYSAAMIRVILQAYRHN
B37: D-domain SEQ ID NO: 78 (designed binder)
chain: MGSWVEFRSRLEAISNRLRALGGSEAELAAFEKEIAAFESELQAYKGKGNPEVEELRTTAALIRVYLQAYRHN
B38: D-domain SEQ ID NO: 73 (designed binder)
chain: MGSWVEFQERLMAISDRLYALGGSEAELAAFEKEIAAFESELQAYKGKGNPEVEELRWQAAMIRYTLQAYRHN
B39: D-domain SEQ ID NO: 80 (designed binder)
chain: MGSWSEFYTRLEAINNRLHALGGSEAELAAFEKEIAAFESELQAYKGKGNPEVEELRYTAALIRIYLQAYRHN
B40: D-domain SEQ ID NO: 81 (designed binder)
chain: MGSWAEFYHRLDAISSRLRALGGSEAELAAFEKEIAAFESELQAYKGKGNPEVEELRYTAALIRIYLQAYRHN

The values below come from patent US20250026849A1 (ARCELLX, published 2025).

The target in one assay is T1, CD123 (Homo sapiens (Human), UniProt P26951 19-305, limits assumed).
T1 construct: The CD123 construct used in the ELISA is not described; also called CD123-Signal
T1 sequence: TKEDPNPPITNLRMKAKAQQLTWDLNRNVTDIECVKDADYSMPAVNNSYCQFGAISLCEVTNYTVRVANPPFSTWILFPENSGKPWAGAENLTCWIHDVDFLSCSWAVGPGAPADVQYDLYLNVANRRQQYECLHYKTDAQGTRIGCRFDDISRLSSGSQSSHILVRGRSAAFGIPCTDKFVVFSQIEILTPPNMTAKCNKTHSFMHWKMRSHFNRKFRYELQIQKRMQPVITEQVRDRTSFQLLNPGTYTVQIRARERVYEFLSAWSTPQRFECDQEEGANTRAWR
Description: ELISA. Also noted: unit not given here. For orientation: In an ELISA, binding on a coated surface is turned into a signal by an enzyme label.
With B1, the ELISA_avg came out at 3.4.

B2 showed an ELISA_avg of 3.

For B3, the ELISA_avg was 4.5.

The molecule B4 returned an ELISA_avg of 5.2.

B5: the ELISA_avg was determined as 5.5.

B6: the ELISA_avg is 7.

B7 gave an ELISA_avg of 4.5.

Consider B8, for which the ELISA_avg came to 4.

B9 returned an ELISA_avg of 4.6.

As to B10, the ELISA_avg is 5.5.

The molecule B11 yielded an ELISA_avg of 3.4.

In the case of B12, the ELISA_avg turned out to be 3.5.

Turning to B13, the ELISA_avg turned out to be 3.7.

With B14, the ELISA_avg was 6.5.

The molecule B15 displayed an ELISA_avg of 3.9.

B16 registered an ELISA_avg of 4.

As for B17, the ELISA_avg turned out to be 9.4.

The molecule B18 displayed an ELISA_avg of 4.5.

In the case of B19, the ELISA_avg is 3.5.

Regarding B20, the ELISA_avg was 5.1.

B21 showed an ELISA_avg of 7.

Turning to B22, the ELISA_avg amounted to 4.5.

As for B23, the ELISA_avg amounted to 6.6.

B24 displayed an ELISA_avg of 3.1.

As to B25, the ELISA_avg was 10.

B26 yielded an ELISA_avg of 4.4.

B27 showed an ELISA_avg of 3.6.

Take B28: the ELISA_avg was determined as 4.3.

In turn, B29 yielded an ELISA_avg of 3.2.

In turn, B30 gave an ELISA_avg of 3.7.

Regarding B31, the ELISA_avg came out at 3.9.

The molecule B32 yielded an ELISA_avg of 3.3.

The molecule B33 yielded an ELISA_avg of 5.4.

Regarding B34, the ELISA_avg was 3.2.

In the next assay the target is T2, BCMA (Homo sapiens (Human), UniProt Q02223 1-54, limits assumed).
T2 sequence: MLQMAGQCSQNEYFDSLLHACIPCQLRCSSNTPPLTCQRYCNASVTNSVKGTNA
The assay can be described thus: ELISA, format not described. The arrangement: unit not given here.
The molecule B35 had an ELISA_avg of 8.71.

B36 came in with an ELISA_avg of 8.88.

B37 gave an ELISA_avg of 3.04.

In turn, B38 gave an ELISA_avg of 6.7.

For the molecule B39, the ELISA_avg amounted to 3.66.

In turn, B40 displayed an ELISA_avg of 4.31.
